B1: Phage-640 (peptide)
peptide: YCEGHLPQYLAKCL
notes: Clonal phage displaying the peptide; not shown: fused to pIII of the bacteriophage
B2: Phage-641 (peptide)
peptide: YCAGHLPLYMEKCL
notes: as for B1
B3: Phage-633 (peptide)
peptide: YCDGHLGIYMWKCL
notes: as for B1
B4: Phage-631 (peptide)
peptide: YCEGHLPEYMSKCL
notes: as for B1
B5: Phage-637 (peptide)
peptide: YCDGHQPEYMAKCL
notes: as for B1
B6: Phage-636 (peptide)
peptide: YCEGHSLEYIGKCL
notes: as for B1
B7: Phage-642 (peptide)
peptide: YCDGHSAEYMMKCL
notes: as for B1
B8: Phage-638 (peptide)
peptide: YCAGHLPEYISKCL
notes: as for B1
B9: Phage-643 (peptide)
peptide: YCEGHLPQYIPKCL
notes: as for B1
B10: Phage-639 (peptide)
peptide: YCDGHIPIYMSKCL
notes: as for B1
B11: Phage-632 (peptide)
peptide: YCAGHLPEYMQKCL
notes: as for B1
B12: Phage-635 (peptide)
peptide: YCDGHSDEYMAKCL
notes: as for B1
B13: Phage-634 (peptide)
peptide: YCEGHSAEYMAKCL
notes: as for B1
B14: Phage-611 (peptide)
peptide: YCDGHAVEYMAKCL
notes: Clonal phage of the Peptide-87 library, tested as crude phage supernatant; not shown: pIII of the bacteriophage to which the peptide is fused
B15: Phage-616 (peptide)
peptide: YCMGHLPQYMQKCL
notes: as for B14
B16: Phage-613 (peptide)
peptide: YCEGHAEEYMQKCL
notes: as for B14
B17: Phage-617 (peptide)
peptide: YCDGHTQEYIAKCL
notes: as for B14
B18: Phage-614 (peptide)
peptide: YCDGHAPEYIYKCL
notes: as for B14
B19: Phage-615 (peptide)
peptide: YCDGHLEEYKQKCL
notes: as for B14
B20: Phage-612 (peptide)
peptide: YCDGHSIEYRWKCL
notes: as for B14

This is an account of results in patent US20260242478A1 (published 2026).

T2 sequence (VH, as listed by the source, chain 1 of 2): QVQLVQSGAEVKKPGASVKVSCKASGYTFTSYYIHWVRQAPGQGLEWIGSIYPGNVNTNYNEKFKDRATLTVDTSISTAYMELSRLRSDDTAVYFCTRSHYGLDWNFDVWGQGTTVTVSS
T2 sequence (VL, as listed by the source, chain 2 of 2): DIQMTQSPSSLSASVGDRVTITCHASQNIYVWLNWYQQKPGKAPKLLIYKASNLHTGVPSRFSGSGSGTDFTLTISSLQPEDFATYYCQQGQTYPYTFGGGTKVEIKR

One assay concerns the target Anti-CD28 Fab (SEQ ID NOs: 696, 697). The experiment in a line: phage ELISA on captured anti-CD28 Fab, wells pre-incubated with CD28 antigen as competitor.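 Further: crude clonal phage supernatants added without washing, bound phage read out by HRP-coupled anti-M13 antibody, reference wells given blocking buffer only instead of CD28.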 For orientation: In an ELISA, binding on a coated surface is turned into a signal by an enzyme label.
Target sequence in this assay (VH, as listed by the source, chain 1 of 2): as the sequence (VH, as listed by the source, chain 1 of 2) above
Target sequence in this assay (VL, as listed by the source, chain 2 of 2): as the sequence (VL, as listed by the source, chain 2 of 2) above
Experimental: (§1) After panning, phage infected bacteria were plated out and colonies picked into 96 well blocks. Clonal phage was then amplified and separated from bacterial cells via centrifugation.
(§2) Clonal phage were harvested as crude supematants and screened via standard ELISAs. […] Prior to the addition of clonal phage, wells were incubated with blocking buffer and CD28 antigen or blocking buffer alone. Without washing or aspirating, clonal phage supematants were then added to the wells and incubated for a short time. Wells were then washed followed by detection of bound phage using a horse radish conjugated anti-M13 antibody. Clonal phage of interest were then sent for sequence analysis.
As for B1, the “Anti-CD28 Fab signal in the presence of CD28 (phage binding ELISA)” value turned out to be 0.1.
Still for that read-out and setting: for B2 the value was 0.06; for B3, 0.08.
Same read-out and setting: to B4 belongs 0.07; to B5, 0.07.
Still for that read-out and setting: to B6 belongs 0.06; to B7, 0.08.
As to B8, the “Anti-CD28 Fab signal in the presence of CD28 (phage binding ELISA)” value stood at 0.08.
In the case of B9, the “Anti-CD28 Fab signal in the presence of CD28 (phage binding ELISA)” value was determined as 0.07.
The same measure, in the same setting: for B10 the value was 0.08; for B11, 0.09; for B12, 0.07.
The same measure, in the same setting: to B13 belongs 0.06.

In a further assay the target is anti-CD28 Fab (SEQ ID NOs: 696, 697). In words: phage binding ELISA; biotinylated Fab on neutravidin plate, clonal phage supernatant, anti-M13 HRP detection.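 Further: phage from clones picked after panning, added to wells pre-incubated with blocking buffer with or without CD28 antigen, then briefly incubated and washed before detection.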
Chain of anti-CD28 Fab (SEQ ID NOs: 696, 697) (VH, as listed by the source, chain 1 of 2): as the sequence (VH, as listed by the source, chain 1 of 2) above
Chain of anti-CD28 Fab (SEQ ID NOs: 696, 697) (VL, as listed by the source, chain 2 of 2): as the sequence (VL, as listed by the source, chain 2 of 2) above
Experimental: as §1, §2
Consider YCEGHLPVYMWKCL (tested as crude phage supernatant) [Phage-619], for which the “Anti-CD28 Fab (SEQ ID NOs: 696, 697) signal” value turned out to be 2.17.
Regarding YCDGHMPEYMWKCL (tested as crude phage supernatant) [Phage-620], the “Anti-CD28 Fab (SEQ ID NOs: 696, 697) signal” value was 2.17.
The same measure, in the same setting: to YCDGHLPEYMWKCI (tested as crude phage supernatant) [Phage-628] belongs 2.15; to YCDGHSNEYMAKCL (tested as crude phage supernatant) [Phage-625], 2.16; to YCDGHSLEYMAKCL (tested as crude phage supernatant) [Phage-630], 2.15.
Still for that read-out and setting: to YCAGHAPEYIQKCL (tested as crude phage supernatant) [Phage-622] belongs 2.17.
With YCAGHAPEYMQKCL (tested as crude phage supernatant) [Phage-624], the “Anti-CD28 Fab (SEQ ID NOs: 696, 697) signal” value came out at 2.16.
The same measure, in the same setting: to YCEGHLPQYLQKCL (tested as crude phage supernatant) [Phage-626] belongs 2.16.
Still for that read-out and setting: to YCDGHTQEYMAKCL (tested as crude phage supernatant) [Phage-618] belongs 2.17.
Take YCAGHSPEYMTKCL (tested as crude phage supernatant) [Phage-621]: the “Anti-CD28 Fab (SEQ ID NOs: 696, 697) signal” value was determined as 2.17.
For the molecule YCDGHVAEYMAKCL (tested as crude phage supernatant) [Phage-627], the “Anti-CD28 Fab (SEQ ID NOs: 696, 697) signal” value was determined as 2.16.
YCDGHVAEYRDKCL (tested as crude phage supernatant) [Phage-623]: the “Anti-CD28 Fab (SEQ ID NOs: 696, 697) signal” value came out at 2.17.
Still for that read-out and setting: to YCDGHSAEYMWKCL (tested as crude phage supernatant) [Phage-629] belongs 2.15.

The target of the next assay is Anti-CD28 Fab (SEQ ID NOs: 696, 697). In words: phage ELISA, biotinylated anti-CD28 Fab on neutravidin plate, anti-M13 HRP detection.
Target sequence in this assay (VH, as listed by the source, chain 1 of 2): as the sequence (VH, as listed by the source, chain 1 of 2) above
Target sequence in this assay (VL, as listed by the source, chain 2 of 2): as the sequence (VL, as listed by the source, chain 2 of 2) above
Experimental: as §1, §2
For B1, the “Anti-CD28 Fab signal (phage binding ELISA)” value was 2.12.
The same measure, in the same setting: for B2 the value was 2.12.
Same read-out and setting: to B3 belongs 2.14; to B4, 2.15; to B5, 2.14.
B6: the “Anti-CD28 Fab signal (phage binding ELISA)” value worked out at 2.14.
On to B7, for which the “Anti-CD28 Fab signal (phage binding ELISA)” value came out at 2.12.
The same measure, in the same setting: to B8 belongs 2.14; to B9, 2.12.
On the same count and under the same terms, for B10 the value was 2.13; for B11, 2.15; for B12, 2.14.
Still for that read-out and setting: for B13 the value was 2.14.

A further assay concerns the target T1, Anti-CD28 Fab (SEQ ID NOs: 696, 697).
T1 construct: In the phage ELISA the Fab was biotinylated and captured on neutravidin coated plates
The experiment in a line: phage ELISA; biotinylated anti-CD28 Fab on neutravidin plate, clonal phage supernatant, anti-M13 HRP.
T1 sequence (VH, as listed by the source, chain 1 of 2): as the sequence (VH, as listed by the source, chain 1 of 2) above
T1 sequence (VL, as listed by the source, chain 2 of 2): as the sequence (VL, as listed by the source, chain 2 of 2) above
B14: the “Anti-CD28 Fab signal (phage binding ELISA)” value amounted to 2.18.
Still for that read-out and setting: to B15 belongs 2.18; to B16, 2.18; to B17, 2.17.
On the same count and under the same terms, to B18 belongs 2.18.
On the same count and under the same terms, for B19 the value was 2.18; for B20, 2.18.

A further assay has as its target T2, Anti-CD28 Fab (SEQ ID NOs: 696, 697) (biotinylated (site not stated)). The experiment in a line: phage binding ELISA; biotinylated anti-CD28 Fab on neutravidin plates, clonal phage supernatant, anti-M13 HRP detection.
Consider YCDGHLEEYMAKCL (tested as crude phage supernatant) [Phage-648], for which the “Anti-CD28 Fab signal (phage binding ELISA)” value was determined as 2.11.
Take YCDGHAPQYMLKCL (tested as crude phage supernatant) [Phage-644]: the “Anti-CD28 Fab signal (phage binding ELISA)” value came out at 2.12.
With YCDGHMPEYMLKCL (tested as crude phage supernatant) [Phage-649], the “Anti-CD28 Fab signal (phage binding ELISA)” value came to 2.11.
The same measure, in the same setting: for YCMGHSEEYMQKCL (tested as crude phage supernatant) [Phage-646] the value was 2.11; for YCDGHLPEYMHKCL (tested as crude phage supernatant) [Phage-647], 2.11.
Still for that read-out and setting: to YCDGHLPVYMAKCL (tested as crude phage supernatant) [Phage-645] belongs 2.11; to YCSGHAPIYMAKCL (tested as crude phage supernatant) [Phage-650], 2.1.

A further assay concerns the target anti-CD28 Fab (SEQ ID NOs: 696, 697). The experiment in a line: phage binding ELISA; Fab on plate pre-incubated with CD28 antigen as competitor, anti-M13 HRP detection.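 Further: crude clonal phage supernatants screened by ELISA, with comparison wells pre-incubated in blocking buffer only, lacking CD28 antigen.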
Experimental: as §1, §2
YCEGHLPVYMWKCL (tested as crude phage supernatant) [Phage-619]: the “Anti-CD28 Fab signal in the presence of CD28” value is 0.09.
Same read-out and setting: to YCDGHMPEYMWKCL (tested as crude phage supernatant) [Phage-620] belongs 0.09; to YCDGHLPEYMWKCI (tested as crude phage supernatant) [Phage-628], 0.07; to YCDGHSNEYMAKCL (tested as crude phage supernatant) [Phage-625], 0.07.
Same read-out and setting: for YCDGHSLEYMAKCL (tested as crude phage supernatant) [Phage-630] the value was 0.06.
Regarding YCAGHAPEYIQKCL (tested as crude phage supernatant) [Phage-622], the “Anti-CD28 Fab signal in the presence of CD28” value was found to be 0.09.
Same read-out and setting: to YCAGHAPEYMQKCL (tested as crude phage supernatant) [Phage-624] belongs 0.07; to YCEGHLPQYLQKCL (tested as crude phage supernatant) [Phage-626], 0.09.
As for YCDGHTQEYMAKCL (tested as crude phage supernatant) [Phage-618], the “Anti-CD28 Fab signal in the presence of CD28” value is 0.07.
The same measure, in the same setting: for YCAGHSPEYMTKCL (tested as crude phage supernatant) [Phage-621] the value was 0.09; for YCDGHVAEYMAKCL (tested as crude phage supernatant) [Phage-627], 0.07; for YCDGHVAEYRDKCL (tested as crude phage supernatant) [Phage-623], 0.07.
The same measure, in the same setting: to YCDGHSAEYMWKCL (tested as crude phage supernatant) [Phage-629] belongs 0.08.

Another assay has as its target T1, Anti-CD28 Fab (SEQ ID NOs: 696, 697). In words: phage ELISA; captured anti-CD28 Fab pre-incubated with CD28 antigen as competitor, anti-M13 HRP.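 Further: crude clonal phage supernatants added without washing after CD28 pre-incubation, bound phage detected with HRP anti-M13 antibody, reference wells got blocking buffer lacking CD28.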
In the case of B14, the “Anti-CD28 Fab signal in the presence of CD28 (phage binding ELISA)” value was determined as 0.1.
The same measure, in the same setting: to B15 belongs 0.11.
Still for that read-out and setting: for B16 the value was 0.06.
The same measure, in the same setting: for B17 the value was 0.06.
In the case of B18, the “Anti-CD28 Fab signal in the presence of CD28 (phage binding ELISA)” value stood at 0.06.
On the same count and under the same terms, for B19 the value was 0.08.
Still for that read-out and setting: to B20 belongs 0.06.

The target of the next assay is T2, Anti-CD28 Fab (SEQ ID NOs: 696, 697). In words: phage binding ELISA; Fab-coated wells pre-incubated with CD28 antigen as competitor, then clonal phage, anti-M13 HRP detection.
Experimental: as §1, §2
With YCDGHLEEYMAKCL (tested as crude phage supernatant) [Phage-648], the “Anti-CD28 Fab signal in the presence of CD28 (phage binding ELISA)” value is 0.09.
Still for that read-out and setting: for YCDGHAPQYMLKCL (tested as crude phage supernatant) [Phage-644] the value was 0.09.
As for YCDGHMPEYMLKCL (tested as crude phage supernatant) [Phage-649], the “Anti-CD28 Fab signal in the presence of CD28 (phage binding ELISA)” value came to 0.09.
On the same count and under the same terms, to YCMGHSEEYMQKCL (tested as crude phage supernatant) [Phage-646] belongs 0.07; to YCDGHLPEYMHKCL (tested as crude phage supernatant) [Phage-647], 0.11; to YCDGHLPVYMAKCL (tested as crude phage supernatant) [Phage-645], 0.09.
Still for that read-out and setting: for YCSGHAPIYMAKCL (tested as crude phage supernatant) [Phage-650] the value was 0.07.
